Laboratory results reported in the Immune Epitope Database (IEDB).
Each block holds one sequence with its values, some of them ahead of it.

Legend:
HLA-B*40:02 = assay: IEDB peptide-MHC binding, purified MHC/competitive/fluorescence; ≥ and ≤ were set here for values at or beyond the usual limits of such assays; conditions: source organism: Rattus norvegicus
HLA-B*35:01 = assay: as above; conditions: source organism: Rattus norvegicus
HLA-A*02:01 = assay: as above; conditions: source organism: Rattus norvegicus
HLA-B*44:03 = assay: as above; conditions: source organism: Rattus norvegicus
HLA-A*68:02 = assay: as above; conditions: source organism: Rattus norvegicus
HLA-A*25:01 [1] = assay: as above; conditions: source organism: Rattus norvegicus
HLA-A*01:01 [2] = assay: as above; conditions: source organism: Rattus norvegicus
HLA-A*03:01 [3] = assay: as above; conditions: source organism: Rattus norvegicus
HLA-B*08:01 [4] = assay: as above; conditions: source organism: Rattus norvegicus
HLA-B*14:02 [5] = assay: as above; conditions: source organism: Rattus norvegicus
HLA-A*29:02 = assay: as above; conditions: source organism: Rattus norvegicus
HLA-A*31:01 = assay: as above; conditions: source organism: Rattus norvegicus
HLA-B*51:01 [6] = assay: as above; conditions: source organism: Rattus norvegicus
HLA-B*53:01 [7] = assay: as above; conditions: source organism: Rattus norvegicus
HLA-A*24:02 = assay: as above; conditions: source organism: Rattus norvegicus
HLA-B*07:02 [8] = assay: as above; conditions: source organism: Rattus norvegicus
HLA-B*58:01 [9] = assay: as above; conditions: source organism: Rattus norvegicus
HLA-B*18:01 [10] = assay: as above; conditions: source organism: Rattus norvegicus
HLA-B*37:01 = assay: as above; conditions: source organism: Rattus norvegicus
HLA-A*11:01 [11] = assay: as above; conditions: source organism: Rattus norvegicus
HLA-A*30:01 = assay: IEDB peptide-MHC binding, purified MHC/competitive/fluorescence; filed as Kd, often an IC50 or EC50 that approximates it; ≥ and ≤ were set here for values at or beyond the usual limits of such assays; conditions: source organism: Entamoeba dispar SAW760
HLA-A*01:01 [12] = assay: as above; conditions: source organism: Entamoeba dispar SAW760
HLA-A*66:01 = assay: as above; conditions: source organism: Entamoeba dispar SAW760
HLA-B*08:01 [13] = assay: as above; conditions: source organism: Entamoeba dispar SAW760
HLA-B*27:05 = assay: as above; conditions: source organism: Entamoeba dispar SAW760
HLA-B*14:02 [14] = assay: as above; conditions: source organism: Entamoeba dispar SAW760
HLA-B*53:01 [15] = assay: as above; conditions: source organism: Entamoeba dispar SAW760
HLA-A*30:02 = assay: as above; conditions: source organism: Entamoeba dispar SAW760
HLA-B*44:02 = assay: as above; conditions: source organism: Entamoeba dispar SAW760
HLA-B*07:02 [16] = assay: as above; conditions: source organism: Entamoeba dispar SAW760
HLA-B*58:01 [17] = assay: as above; conditions: source organism: Entamoeba dispar SAW760
HLA-A*11:01 [18] = assay: as above; conditions: source organism: Entamoeba dispar SAW760
HLA-A*02:19 = assay: IEDB peptide-MHC binding, purified MHC/direct/fluorescence; filed as Kd, often an IC50 or EC50 that approximates it; ≥ and ≤ were set here for values at or beyond the usual limits of such assays; conditions: source organism: Campylobacter jejuni
HLA-A*02:03 = assay: as above; conditions: source organism: Campylobacter jejuni
HLA-B*27:03 = assay: as above; conditions: source organism: Campylobacter jejuni
HLA-A*25:01 [19] = assay: as above; conditions: source organism: Campylobacter jejuni
HLA-A*02:12 = assay: as above; conditions: source organism: Campylobacter jejuni
HLA-B*57:01 = assay: as above; conditions: source organism: Campylobacter jejuni
HLA-A*03:01 [20] = assay: as above; conditions: source organism: Campylobacter jejuni
HLA-C*04:01 = assay: as above; conditions: source organism: Campylobacter jejuni
HLA-B*51:01 [21] = assay: as above; conditions: source organism: Campylobacter jejuni
HLA-B*39:01 = assay: as above; conditions: source organism: Campylobacter jejuni
HLA-A*26:01 = assay: as above; conditions: source organism: Campylobacter jejuni
HLA-B*15:01 = assay: as above; conditions: source organism: Campylobacter jejuni
HLA-B*18:01 [22] = assay: as above; conditions: source organism: Campylobacter jejuni
HLA-A*02:11 = assay: as above; conditions: source organism: Campylobacter jejuni
HLA-B*46:01 = assay: as above; conditions: source organism: Campylobacter jejuni
HLA-A*80:01 = assay: as above; conditions: source organism: Campylobacter jejuni

IC50 (HLA-B*40:02): ≥ 20 µM
IC50 (HLA-B*35:01): ≥ 20 µM
IC50 (HLA-A*02:01): 0.0187 µM
IC50 (HLA-B*44:03): ≥ 20 µM
IC50 (HLA-A*68:02): 0.914 µM
IC50 (HLA-A*25:01 [1]): ≥ 20 µM
IC50 (HLA-A*01:01 [2]): ≥ 20 µM
IC50 (HLA-A*03:01 [3]): ≥ 20 µM
IC50 (HLA-B*08:01 [4]): ≥ 20 µM
IC50 (HLA-B*14:02 [5]): ≥ 20 µM
IC50 (HLA-A*29:02): 17.8 µM
IC50 (HLA-A*31:01): ≥ 20 µM
IC50 (HLA-B*51:01 [6]): ≥ 20 µM
IC50 (HLA-B*53:01 [7]): ≥ 20 µM
IC50 (HLA-A*24:02): 6.08 µM
IC50 (HLA-B*07:02 [8]): ≥ 20 µM
IC50 (HLA-B*58:01 [9]): ≥ 20 µM
IC50 (HLA-B*18:01 [10]): ≥ 20 µM
IC50 (HLA-B*37:01): ≥ 20 µM
IC50 (HLA-A*11:01 [11]): ≥ 20 µM
Sequence: SLLERGQQLGV

Sequence: SQYDPKELL
Kd (HLA-A*30:01): ≥ 5 µM
Kd (HLA-A*01:01 [12]): ≥ 5 µM
Kd (HLA-A*66:01): ≥ 5 µM
Kd (HLA-B*08:01 [13]): ≥ 5 µM
Kd (HLA-B*27:05): ≥ 5 µM
Kd (HLA-B*14:02 [14]): ≥ 5 µM
Kd (HLA-B*53:01 [15]): ≥ 5 µM
Kd (HLA-A*30:02): ≥ 5 µM
Kd (HLA-B*44:02): ≥ 5 µM
Kd (HLA-B*07:02 [16]): ≥ 5 µM
Kd (HLA-B*58:01 [17]): ≥ 5 µM
Kd (HLA-A*11:01 [18]): ≥ 5 µM

Sequence: YWDQVTFFY
Kd (HLA-A*02:19): ≥ 20 µM
Kd (HLA-A*02:03): ≥ 20 µM
Kd (HLA-B*27:03): ≥ 20 µM
Kd (HLA-A*25:01 [19]): ≥ 20 µM
Kd (HLA-A*02:12): ≥ 20 µM
Kd (HLA-B*57:01): ≥ 20 µM
Kd (HLA-A*03:01 [20]): ≥ 20 µM
Kd (HLA-C*04:01): ≥ 20 µM
Kd (HLA-B*51:01 [21]): ≥ 20 µM
Kd (HLA-B*39:01): ≥ 20 µM
Kd (HLA-A*26:01): ≥ 20 µM
Kd (HLA-B*15:01): ≥ 20 µM
Kd (HLA-B*18:01 [22]): ≥ 20 µM
Kd (HLA-A*02:11): ≥ 20 µM
Kd (HLA-B*46:01): ≥ 20 µM
Kd (HLA-A*80:01): 0.056 µM
